Laboratory results published in patent US20160289298A1.

Tests used:
TGFβ1 = TGFβ1 (UniProt P01137); assay: SPR (Biacore), receptor-Fc captured by anti-Fc antibody, ligand injected
TGFβ2 = TGFβ2 (UniProt P61812); assay: as above
TGFβ2, sequence (P61812 303-414 limits assumed): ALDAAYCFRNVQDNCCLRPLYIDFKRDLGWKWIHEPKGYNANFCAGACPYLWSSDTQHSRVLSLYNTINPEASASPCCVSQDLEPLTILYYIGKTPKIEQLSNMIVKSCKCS

TGFβ1, sequence (P01137 279-390 limits assumed): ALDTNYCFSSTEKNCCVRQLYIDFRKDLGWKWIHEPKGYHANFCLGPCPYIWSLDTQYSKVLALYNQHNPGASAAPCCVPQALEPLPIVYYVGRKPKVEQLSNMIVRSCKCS

Kd (TGFβ1): 0.025 nM
Kd (TGFβ2): > 44 nM
Substance: TGFβRII-Fc homodimeric complex (from UniProt P37173 23-159) (Fc fusion)
